Source: publication PMC11098746 (2024)

B1: ADP153 (protein)
chain: MAGIWTLLPLVLTSVARLSSKSVNAQVTDINSKGLELRKTVTTVETQNLEGLHHDGQFCHKPCPPGERKARDCTVNGDEPDCVPCQEGKEYTDKAHFSSKCRRCRLCDEGHGLEVEINCTRTQNTKCRCKPNFFCNSTVCEHCDPCTKCEHGIIKECTLTSNTKCKEEGS
modifications: bait human Fc-tagged dimer
B2: ADP391 (protein)
chain: SSRHVLLQEEVAELQGQVQRTEVARGRLEKRNSDLLLLVDTHKKQIDQKEADYGRLSSRLQAREGLGKRCEDDKVKLQNNISYQMADIHHLKEQLAELRQEFLRQEDQLQDYRKNNTYLVKRLEYESFQCGQQMKELRAQHEENIKKLADQFLEEQKQETQKIQSNDGKELDINNQVVPKNIPKVAENVADKNEEPSSNHIPHGKEQIKRGGDAGMPGIEENDLAKVDDLPPALRKPPISVSQHESHQAISHLPTGQPLSPNMPPDSHINHNGNPGTSKQNPSSPLQRLIPGSNLDSEPRIQTDILKQATKDRVSDFHKLKQSRFFDENESPVDPQHGSKLADYNGDDGNVGEYEADKQAELAYNEEEDGDGGEEDVQGERGPGLHAITMKPTSKFFG
modifications: bait human Fc-tagged dimer
B3: ADP109 (protein)
chain: MGIQGGSVLFGLLLVLAVFCHSGHSLQCYNCPNPTADCKTAVNCSSDFDACLITKAGLQVYNKCWKFEHCNFNDVTTRLRENELTYYCCKKDLCNFNEQLEN
modifications: bait human Fc-tagged dimer
B4: ADP131 (protein)
chain: MVRMVSWSFHKLKTMKHLLLLLLCVFLVKSQGVNDNEEGFFSARGHRPLDKKREEAPSLRPAPPPISGGGYRARPAKAAATQKKVERKAPDAGGCLHADPDLGVLCPTGCQLQEALLQQERPIRNSVDELNNNVEAVSQTSSSSFQYMYLLKDLWQKRQKQVKDNENVVNEYSSELEKHQLYIDETVNSNIPTNLRVLRSILENLRSKIQKLESDVSAQMEYCRTPCTVSCNIPVVSGKECEEIIRKGGETSEMYLIQPDSSVKPYRVYCDMNTENGGWTVIQNRQDGSVDFGRKWDPYKQGFGNVATNTDGKNYCGLPGEYWLGNDKISQLTRMGPTELLIEMEDWKGDKVKAHYGGFTVQNEANKYQISVNKYRGTAGNALMDGASQLMGENRTMTIHNGMFFSTYDRDNDGWLTSDPRKQCSKEDGGGWWYNRCHAANPNGRYYWGGQYTWDMAKHGTDDGVVWMNWKGSWYSMRKMSMKIRPFFPQQ
modifications: bait human Fc-tagged dimer
B5: ADP149 (protein)
chain: MAWKHVPFLVMISLLSLSPNHLFLAQLIPDPEDVERGNDHGTPIPTSDNDDNSLGYTGSRLRQEDFPPRIVEHPSDLIVSKGEPATLNCKAEGRPTPTIEWYKGGERVETDKDDPRSHRMLLPSGSLFFLRIVHGRKSRPDEGVYVCVARNYLGEAVSHNASLEVAILRDDFRQNPSDVMVAVGEPAVMECQPPRGHPEPTISWKKDGSPLDDKDERITIRGGKLMITYTRKSDAGKYVCVGTNMVGERESEVAELTVLERPSFVKRPSNLAVTVDDSAEFKCEARGDPVPTVRWRKDDGELPKSRYEIRDDHTLKIRKVTAGDMGSYTCVAENMVGKAEASATLTVQEPPHFVVKPRDQVVALGRTVTFQCEATGNPQPAIFWRREGSQNLLFSYQPPQSSSRFSVSQTGDLTITNVQRSDVGYYICQTLNVAGSIITKAYLEVTDVIADRPPPVIRQGPVNQTVAVDGTFVLSCVATGSPVPTILWRKDGVLVSTQDSRIKQLENGVLQIRYAKLGDTGRYTCIASTPSGEATWSAYIEVQEFGVPVQPPRPTDPNLIPSAPSKPEVTDVSRNTVTLSWQPNLNSGATPTSYIIEAFSHASGSSWQTVAENVKTETSAIKGLKPNAIYLFLVRAANAYGISDPSQISDPVKTQDVLPTSQGVDHKQVQRELGNAVLHLHNPTVLSSSSIEVHWTVDQQSQYIQGYKILYRPSGANHGESDWLVFEVRTPAKNSVVIPDLRKGVNYEIKARPFFNEFQGADSEIKFAKTLEEAPSAPPQGVTVSKNDGNGTAILVSWQPPPEDTQNGMVQEYKVWCLGNETRYHINKTVDGSTFSVVIPFLVPGIRYSVEVAASTGAGSGVKSEPQFIQLDAHGNPVSPEDQVSLAQQISDVVKQP
modifications: bait human Fc-tagged dimer
B6: ADP312 (protein)
chain: MALDRPGEGATMLKTFTVLLFCIRMSLGMTSIVMDPQPELWIESNYPQAPWENITLWCRSPSRISSKFLLLKDKTQMTWIRPSHKTFQVSFLIGALTESNAGLYRCCYWKETGWSKPSKVLELEAPGQLPKPIFWIQAETPALPGCNVNILCHGWLQDLVFMLFKEGYAEPVDYQVPTGTMAIFSIDNLTPEDEGVYICRTHIQMLPTLWSEPSNPLKLVVAGLYPKPTLTAHPGPIMAPGESLNLRCQGPIYGMTFALMRVEDLEKSFYHKKTIKNEANFFFQSLKIQDTGHYLCFYYDASYRGSLLSDVLKIWVTDTFPKTWLLARPSAVVQMGQNVSLRCRGPVDGVGLALYKKGEDKPLQFLDATSIDDNTSFFLNNVTYSDTGIYSCHYLLTWKTSIRMPSHNTVELMVVDKPPKPSLSAWPSTVFKLGKAITLQCRVSHPVLEFSLEWEERETFQKFSVNGDFIISNVDGKGTGTYSCSYRVETHPNIWSHRSEPLKLMGPAGYLTWNYVLN
modifications: bait human Fc-tagged dimer
B7: ADP159 (protein)
chain: MAALRPTLLPPSLPLLLLLMLGMGCWAREVLVPEGPLYRVAGTAVSISCNVTGYEGPAQQNFEWFLYRPEAPDTALGIVSTKDTQFSYAVFKSRVVAGEVQVQRLQGDAVVLKIARLQAQDAGIYECHTPSTDTRYLGSYSGKVELRVLPDVLQVSAAPPGPRGRQAPTSPPRMTVHEGQELALGCLARTSTQKHTHLAVSFGRSVPEAPVGRSTLQEVVGIRSDLAVEAGAPYAERLAAGELRLGKEGTDRYRMVVGGAQAGDAGTYHCTAAEWIQDPDGSWAQIAEKRAVLAHVDVQTLSSQLAVTVGPGERRIGPGEPLELLCNVSGALPPAGRHAAYSVGWEMAPAGAPGPGRLVAQLDTEGVGSLGPGYEGRHIAMEKVASRTYRLRLEAARPGDAGTYRCLAKAYVRGSGTRLREAASARSRPLPVHVREEGVVLEAVAWLAGGTVYRGETASLLCNISVRGGPPGLRLAASWWVERPEDGELSSVPAQLVGGVGQDGVAELGVRPGGGPVSVELVGPRSHRLRLHSLGPEDEGVYHCAPSAWVQHADYSWYQAGSARSGPVTVYPYMHALDT
modifications: bait human Fc-tagged dimer
B8: ADP372 (protein)
chain: MARAMAAAWPLLLVALLVLSWPPPGTGDVVVQAPTQVPGFLGDSVTLPCYLQVPNMEVTHVSQLTWARHGESGSMAVFHQTQGPSYSESKRLEFVAARLGAELRNASLRMFGLRVEDEGNYTCLFVTFPQGSRSVDIWLRVLAKPQNTAEVQKVQLTGEPVPMARCVSTGGRPPAQITWHSDLGGMPNTSQVPGFLSGTVTVTSLWILVPSSQVDGKNVTCKVEHESFEKPQLLTVNLTVYYPPEVSISGYDNNWYLGQNEATLTCDARSNPEPTGYNWSTTMGPLPPFAVAQGAQLLIRPVDKPINTTLICNVTNALGARQAELTVQVKEGPPSEHSGISRN
modifications: bait human Fc-tagged dimer
B9: ADP135 (protein)
chain: MTPPRLFWVWLLVAGTQGVNDGDMRLADGGATNQGRVEIFYRGQWGTVCDNLWDLTDASVVCRALGFENATQALGRAAFGQGSGPIMLDEVQCTGTEASLADCKSLGWLKSNCRHERDAGVVCTNETRSTHTLDLSRELSEALGQIFDSQRGCDLSISVNVQGEDALGFCGHTVILTANLEAQALWKEPGSNVTMSVDAECVPMVRDLLRYFYSRRIDITLSSVKCFHKLASAYGARQLQGYCASLFAILLPQDPSFQMPLDLYAYAVATGDALLEKLCLQFLAWNFEALTQAEAWPSVPTDLLQLLLPRSDLAVPSELALLKAVDTWSWGERASHEEVEGLVEKIRFPMMLPEELFELQFNLSLYWSHEALFQKKTLQALEFHTVPFQLLARYKGLNLTEDTYKPRIYTSPTWSAFVTDSSWSARKSQLVYQSRRGPLVKYSSDYFQAPSDYRYYPYQSFQTPQHPSFLFQDKRVSWSLVYLPTIQSCWNYGFSCSSDELPVLGLTKSGGSDRTIAYENKALMLCEGLFVADVTDFEGWKAAIPSALDTNSSKSTSSFPCPAGHFNGFRTVIRPFYLTNSSGVD
modifications: bait human Fc-tagged dimer

target: Circumsporozoite protein (CSP) (Plasmodium falciparum (isolate 3D7), UniProt Q7K740); test: AVEXIS screen signal:noise (double-corrected)
Sequence (Q7K740 19-374): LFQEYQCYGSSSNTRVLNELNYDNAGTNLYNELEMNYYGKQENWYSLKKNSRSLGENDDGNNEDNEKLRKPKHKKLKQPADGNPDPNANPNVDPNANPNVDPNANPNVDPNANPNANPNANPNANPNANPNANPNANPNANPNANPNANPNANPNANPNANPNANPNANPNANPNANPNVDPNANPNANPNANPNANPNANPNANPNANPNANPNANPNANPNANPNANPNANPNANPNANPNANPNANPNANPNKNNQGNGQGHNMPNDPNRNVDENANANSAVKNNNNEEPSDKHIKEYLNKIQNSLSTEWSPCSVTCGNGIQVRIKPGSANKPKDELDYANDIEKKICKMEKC

Binder | binding score
B1 | 1.01
B2 | 0.592
B3 | 1.68
B4 | 0.806
B5 | 0.924
B6 | 0.61
B7 | 0.885
B8 | 1.04
B9 | 0.514
